This note sets out measurements from patent publication US20250134962A1 (published 2025).

Like-named read-outs stand apart in the source and are kept apart here.

The target in assay [1] is T1, GPC3 (UniProt P51654 25-554). Kind of assay: flow cytometry; HepG2 cells. (In flow cytometry, cells or beads pass a laser one at a time.)
Assay [2] has as its target T1, GPC3. Kind of assay: flow cytometry; HepG2 cells. The source holds these as a separate data set.

B1: Codrituzumab (antibody, V domains shown)
VH: QVQLVQSGAEVKKPGASVKVSCKASGYTFTDYEMHWVRQAPGQGLEWMGALDPKTGDTAYSQKFKGRVTLTADKSTSTAYMELSSLTSEDTAVYYCTRFYSYTYWGQGTLVTVSS
VL: DVVMTQSPLSLPVTPGEPASISCRSSQSLVHSNRNTYLHWYLQKPGQSPQLLIYKVSNRFSGVPDRFSGSGSGTDFTLKISRVEAEDVGVYYCSQNTHVPPTFGQGTKLEIKR
For the molecule B1, the EC50 in assay [1] and in assay [2] was 0.529 nM in each case.
